Reference: PMC10504559

Tests used:
ABI4 [1] = molecular target: T1, ABI4 (Arabidopsis thaliana, UniProt A0MES8 1-328); experiment: competition
RGA = molecular target: T2, RGA (Arabidopsis thaliana, UniProt Q9SLH3 1-587); experiment: EMSA
T2 sequence: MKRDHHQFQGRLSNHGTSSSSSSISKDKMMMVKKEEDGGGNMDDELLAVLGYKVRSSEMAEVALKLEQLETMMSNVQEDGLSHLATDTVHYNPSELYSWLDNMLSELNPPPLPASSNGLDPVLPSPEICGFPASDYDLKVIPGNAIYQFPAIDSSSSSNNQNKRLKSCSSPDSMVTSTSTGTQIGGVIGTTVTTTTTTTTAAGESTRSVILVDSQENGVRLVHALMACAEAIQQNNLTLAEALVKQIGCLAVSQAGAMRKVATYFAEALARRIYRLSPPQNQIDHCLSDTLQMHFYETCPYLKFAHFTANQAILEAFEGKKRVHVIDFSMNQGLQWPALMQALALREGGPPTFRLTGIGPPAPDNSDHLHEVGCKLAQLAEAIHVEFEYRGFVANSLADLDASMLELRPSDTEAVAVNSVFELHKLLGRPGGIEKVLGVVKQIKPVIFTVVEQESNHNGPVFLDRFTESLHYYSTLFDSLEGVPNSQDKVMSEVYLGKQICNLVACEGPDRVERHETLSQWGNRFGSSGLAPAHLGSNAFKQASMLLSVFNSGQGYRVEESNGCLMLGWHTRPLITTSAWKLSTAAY

ABI4 [2] = molecular target: T1, ABI4; experiment: EMSA
HY5 = molecular target: T3, HY5 (Arabidopsis thaliana, UniProt O24646 1-168); experiment: EMSA
T3 sequence: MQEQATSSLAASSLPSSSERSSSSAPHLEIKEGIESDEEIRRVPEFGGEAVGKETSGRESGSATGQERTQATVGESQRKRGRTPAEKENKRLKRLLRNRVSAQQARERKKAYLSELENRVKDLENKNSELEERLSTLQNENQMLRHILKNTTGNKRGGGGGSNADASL

T1 sequence (A0MES8 whole entry): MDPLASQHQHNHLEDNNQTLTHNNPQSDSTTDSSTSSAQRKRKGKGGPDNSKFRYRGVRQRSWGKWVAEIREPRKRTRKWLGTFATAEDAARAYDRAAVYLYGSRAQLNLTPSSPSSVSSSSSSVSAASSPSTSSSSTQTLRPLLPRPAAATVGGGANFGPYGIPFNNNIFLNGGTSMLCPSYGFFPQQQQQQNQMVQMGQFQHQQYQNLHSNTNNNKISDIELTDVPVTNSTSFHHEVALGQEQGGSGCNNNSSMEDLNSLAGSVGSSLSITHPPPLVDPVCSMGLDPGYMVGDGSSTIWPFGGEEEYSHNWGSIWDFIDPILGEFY

B1: GA2ox7 promoter CCAC mutant (m) (dsDNA)
DNA 1: AAACACCCGACCCAATCTAAAAATCTATACATAAGTATACCAATTTATTCTTCTTCTTCA
DNA 2: TGAAGAAGAAGAATAAATTGGTATACTTATGTATAGATTTTTAGATTGGGTCGGGTGTTT
ABI4 [1]
  binding result: no binding

B2: EXP2 promoter probe (dsDNA)
DNA 1: GCGGATATGTAATACGTCCACGTGGCATAAAAGTA
DNA 2: TACTTTTATGCCACGTGGACGTATTACATATCCGC
RGA
  binding result: no binding
ABI4 [2]
  binding result: binds

B3: GA2ox7 promoter G-box probe (dsDNA)
DNA 1: TTAGGACACAAACACGTGGTTTTTCATAGCATTGAGAAATTATAATAAAT
DNA 2: ATTTATTATAATTTCTCAATGCTATGAAAAACCACGTGTTTGTGTCCTAA
HY5
  binding result: binds

B4: GA2ox7 promoter CCAC probe (dsDNA)
DNA 1: AAACACCCGACCCAATCTAAAAATCCCACCATAAGCCACCCAATTTATTCTTCTTCTTCA
DNA 2: TGAAGAAGAAGAATAAATTGGGTGGCTTATGGTGGGATTTTTAGATTGGGTCGGGTGTTT
ABI4 [2]
  binding result: binds
